From publication PMC6715699

Target: T1, TRF2 (UniProt Q15554)
T1 sequence: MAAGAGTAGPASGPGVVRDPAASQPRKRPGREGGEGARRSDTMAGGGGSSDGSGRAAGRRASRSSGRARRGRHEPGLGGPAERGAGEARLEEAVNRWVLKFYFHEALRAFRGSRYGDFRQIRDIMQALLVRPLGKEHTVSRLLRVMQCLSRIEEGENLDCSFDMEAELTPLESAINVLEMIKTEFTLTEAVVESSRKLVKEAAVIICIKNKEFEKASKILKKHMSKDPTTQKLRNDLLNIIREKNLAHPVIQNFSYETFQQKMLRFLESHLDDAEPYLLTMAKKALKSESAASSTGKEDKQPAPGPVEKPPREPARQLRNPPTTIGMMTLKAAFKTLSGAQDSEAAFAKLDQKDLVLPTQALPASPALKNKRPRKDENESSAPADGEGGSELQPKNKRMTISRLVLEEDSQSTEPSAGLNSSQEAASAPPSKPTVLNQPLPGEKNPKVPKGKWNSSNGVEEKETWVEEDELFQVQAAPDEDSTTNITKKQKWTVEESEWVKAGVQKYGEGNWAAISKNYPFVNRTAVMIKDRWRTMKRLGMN
Assay: MST
Conditions: 50 nM labelled DNA; MST in standard MST buffer (composition and pH not given), premium-treated capillaries, Monolith NT.115; 20 min at room temperature stated for the protein …

Sequence: TTAGGGTTAGGGTTAGGG (double strand) [TELO (TTAGGG)3]
- Kd: 12.2 nM
